Assays:
[1] = target: pure human iC3b (Complement Technology, A115) (human) (UniProt P01024); test: sandwich ELISA, capture A209 (Example 5), goat anti-C3-HRP; TABLE 6 well A7, blocker
[2] = target: pure human iC3b (Complement Technology, A115) (human) (UniProt P01024); test: sandwich ELISA, capture A209 (Example 5), goat anti-C3-HRP; TABLE 6 well A8, blocker
[3] = target: pure human iC3b (Complement Technology, A115) (human) (UniProt P01024); test: sandwich ELISA, capture A209 (Example 5), goat anti-C3-HRP; TABLE 6 well A9, blocker
[4] = target: pure human iC3b (Complement Technology, A115) (human) (UniProt P01024); test: sandwich ELISA, capture A209 (Example 5), goat anti-C3-HRP; TABLE 6 well B7, blocker
[5] = target: pure human iC3b (Complement Technology, A115) (human) (UniProt P01024); test: sandwich ELISA, capture A209 (Example 5), goat anti-C3-HRP; TABLE 6 well C4, 30% vitreous
[6] = target: pure human iC3b (Complement Technology, A115) (human) (UniProt P01024); test: sandwich ELISA, capture A209 (Example 5), goat anti-C3-HRP; TABLE 6 well C6, 30% vitreous
[7] = target: pure human iC3b (Complement Technology, A115) (human) (UniProt P01024); test: sandwich ELISA, capture A209 (Example 5), goat anti-C3-HRP; TABLE 6 well C7, 30% vitreous
[8] = target: pure human iC3b (Complement Technology, A115) (human) (UniProt P01024); test: sandwich ELISA, capture A209 (Example 5), goat anti-C3-HRP; TABLE 6 well D2, 30% vitreous
[9] = target: pure human iC3b (Complement Technology, A115) (human) (UniProt P01024); test: sandwich ELISA, capture A209 (Example 5), goat anti-C3-HRP; TABLE 6 well D3, 30% vitreous
[10] = target: pure human iC3b (Complement Technology, A115) (human) (UniProt P01024); test: sandwich ELISA, capture A209 (Example 5), goat anti-C3-HRP; TABLE 6 well E4, 20% vitreous
[11] = target: pure human iC3b (Complement Technology, A115) (human) (UniProt P01024); test: sandwich ELISA, capture A209 (Example 5), goat anti-C3-HRP; TABLE 6 well E6, 20% vitreous
[12] = target: pure human iC3b (Complement Technology, A115) (human) (UniProt P01024); test: sandwich ELISA, capture A209 (Example 5), goat anti-C3-HRP; TABLE 6 well E7, 20% vitreous
[13] = target: pure human iC3b (Complement Technology, A115) (human) (UniProt P01024); test: sandwich ELISA, capture A209 (Example 5), goat anti-C3-HRP; TABLE 6 well F2, 20% vitreous
[14] = target: pure human iC3b (Complement Technology, A115) (human) (UniProt P01024); test: sandwich ELISA, capture A209 (Example 5), goat anti-C3-HRP; TABLE 6 well F9, 20% vitreous
[15] = target: pure human iC3b (Complement Technology, A115) (human) (UniProt P01024); test: sandwich ELISA, capture A209 (Example 5), goat anti-C3-HRP; TABLE 6 well G2, 10% vitreous
[16] = target: pure human iC3b (Complement Technology, A115) (human) (UniProt P01024); test: sandwich ELISA, capture A209 (Example 5), goat anti-C3-HRP; TABLE 6 well G3, 10% vitreous
[17] = target: pure human iC3b (Complement Technology, A115) (human) (UniProt P01024); test: sandwich ELISA, capture A209 (Example 5), goat anti-C3-HRP; TABLE 6 well G5, 10% vitreous
[18] = target: pure human iC3b (Complement Technology, A115) (human) (UniProt P01024); test: sandwich ELISA, capture A209 (Example 5), goat anti-C3-HRP; TABLE 6 well G8, 10% vitreous
[19] = target: pure human iC3b (Complement Technology, A115) (human) (UniProt P01024); test: sandwich ELISA, capture A209 (Example 5), goat anti-C3-HRP; TABLE 6 well G9, 10% vitreous
[20] = target: pure human iC3b (Complement Technology, A115) (human) (UniProt P01024); test: sandwich ELISA, capture A209 (Example 5), goat anti-C3-HRP; TABLE 6 well H8, 10% vitreous
[21] = target: pure human iC3b (Complement Technology, A115) (human) (UniProt P01024); test: sandwich ELISA, capture A209 (Example 5), goat anti-C3-HRP; TABLE 7, iC3b in 10% vitreous
[22] = target: pure human iC3b (Complement Technology, A115) (human) (UniProt P01024); test: sandwich ELISA, capture A209 (Example 5), goat anti-C3-HRP; TABLE 7, iC3b in 30% vitreous
[23] = target: pure human iC3b (Complement Technology, A115) (human) (UniProt P01024); test: sandwich ELISA of Example 5, iC3b concentration labeled 0.0125 in 20% human vitreous, duplicate 1
[24] = target: pure human iC3b (Complement Technology, A115) (human) (UniProt P01024); test: sandwich ELISA of Example 5, iC3b concentration labeled 0.0125 in 20% human vitreous, mean of duplicates less background

Sequence of UniProt P01024 (P01024 23-667 limits assumed, chain 1 of 3): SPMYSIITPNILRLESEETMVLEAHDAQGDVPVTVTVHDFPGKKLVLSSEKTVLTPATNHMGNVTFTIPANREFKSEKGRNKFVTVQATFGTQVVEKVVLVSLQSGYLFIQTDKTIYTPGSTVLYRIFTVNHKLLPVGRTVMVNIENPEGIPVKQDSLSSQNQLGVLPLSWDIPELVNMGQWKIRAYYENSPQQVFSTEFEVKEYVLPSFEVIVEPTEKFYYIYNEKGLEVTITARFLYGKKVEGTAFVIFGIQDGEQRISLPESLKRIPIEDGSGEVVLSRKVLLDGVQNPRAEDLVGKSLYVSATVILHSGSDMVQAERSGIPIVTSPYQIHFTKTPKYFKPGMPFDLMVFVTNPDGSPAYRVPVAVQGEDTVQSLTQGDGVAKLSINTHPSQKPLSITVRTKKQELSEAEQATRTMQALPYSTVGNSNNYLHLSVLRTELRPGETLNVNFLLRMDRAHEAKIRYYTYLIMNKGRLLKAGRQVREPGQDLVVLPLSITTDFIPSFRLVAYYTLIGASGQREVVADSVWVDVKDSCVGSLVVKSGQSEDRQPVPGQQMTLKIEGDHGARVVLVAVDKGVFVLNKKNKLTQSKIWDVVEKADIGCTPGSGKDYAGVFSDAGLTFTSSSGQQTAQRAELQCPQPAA
Sequence of UniProt P01024 (P01024 749-1303 limits assumed, chain 2 of 3): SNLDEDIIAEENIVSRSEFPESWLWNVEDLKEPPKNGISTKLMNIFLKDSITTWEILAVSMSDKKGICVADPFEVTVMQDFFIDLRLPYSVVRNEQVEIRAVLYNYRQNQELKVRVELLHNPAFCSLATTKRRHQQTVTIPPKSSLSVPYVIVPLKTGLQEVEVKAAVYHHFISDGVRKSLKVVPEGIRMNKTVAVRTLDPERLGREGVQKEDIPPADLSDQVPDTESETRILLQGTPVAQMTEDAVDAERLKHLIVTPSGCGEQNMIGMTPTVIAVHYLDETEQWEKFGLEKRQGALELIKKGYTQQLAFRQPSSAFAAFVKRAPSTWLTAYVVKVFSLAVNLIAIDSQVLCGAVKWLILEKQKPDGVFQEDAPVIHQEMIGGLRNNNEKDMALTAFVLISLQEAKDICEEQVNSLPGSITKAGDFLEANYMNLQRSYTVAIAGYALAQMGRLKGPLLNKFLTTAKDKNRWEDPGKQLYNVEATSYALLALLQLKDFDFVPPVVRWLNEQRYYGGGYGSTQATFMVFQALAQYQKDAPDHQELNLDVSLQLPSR
Sequence of UniProt P01024 (P01024 1321-1663 limits assumed, chain 3 of 3): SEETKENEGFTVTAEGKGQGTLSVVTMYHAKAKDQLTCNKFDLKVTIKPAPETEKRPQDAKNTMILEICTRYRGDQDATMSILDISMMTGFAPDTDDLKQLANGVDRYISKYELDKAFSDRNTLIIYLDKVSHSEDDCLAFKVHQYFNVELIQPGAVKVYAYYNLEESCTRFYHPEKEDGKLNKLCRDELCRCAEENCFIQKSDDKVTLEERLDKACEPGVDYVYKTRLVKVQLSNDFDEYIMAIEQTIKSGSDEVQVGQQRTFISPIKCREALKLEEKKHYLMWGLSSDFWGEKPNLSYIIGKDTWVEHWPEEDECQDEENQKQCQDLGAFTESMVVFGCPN

raw A450 at iC3b 0.031 ug/ml [1]: 0.053 OD | raw A450 at iC3b 0.016 ug/ml [2]: 0.043 OD | raw A450 at iC3b 0.0078 ug/ml [3]: 0.035 OD | raw A450 at iC3b 0.031 ug/ml [4]: 0.048 OD | raw A450 at iC3b 0.25 ug/ml [5]: 0.391 OD | raw A450 at iC3b 0.063 ug/ml [6]: 0.375 OD | raw A450 at iC3b 0.031 ug/ml [7]: 0.355 OD | raw A450 at iC3b 1 ug/ml [8]: 0.453 OD | raw A450 at iC3b 0.5 ug/ml [9]: 0.406 OD | raw A450 at iC3b 0.25 ug/ml [10]: 0.411 OD | raw A450 at iC3b 0.063 ug/ml [11]: 0.353 OD | raw A450 at iC3b 0.031 ug/ml [12]: 0.339 OD | raw A450 at iC3b 1 ug/ml [13]: 0.527 OD | raw A450 at iC3b 0.0078 ug/ml [14]: 0.38 OD | raw A450 at iC3b 1 ug/ml [15]: 0.508 OD | raw A450 at iC3b 0.5 ug/ml [16]: 0.385 OD | raw A450 at iC3b 0.125 ug/ml [17]: 0.274 OD | raw A450 at iC3b 0.016 ug/ml [18]: 0.227 OD | raw A450 at iC3b 0.0078 ug/ml [19]: 0.229 OD | raw A450 at iC3b 0.016 ug/ml [20]: 0.237 OD | A450 minus matrix average at iC3b 0.0078 ug/ml [21]: -0.008 OD | A450 minus matrix average at iC3b 0.016 ug/ml [21]: 0.006 OD | A450 minus matrix average at iC3b 0.031 ug/ml [21]: 0.014 OD | A450 minus matrix average at iC3b 0.063 ug/ml [21]: 0.017 OD | A450 minus matrix average at iC3b 0.125 ug/ml [21]: 0.062 OD | A450 minus matrix average at iC3b 0.25 ug/ml [21]: 0.056 OD | A450 minus matrix average at iC3b 0.5 ug/ml [21]: 0.125 OD | A450 minus matrix average at iC3b 1 ug/ml [21]: 0.239 OD | A450 minus matrix average at iC3b 0.0078 ug/ml [22]: 0.0042 OD | A450 minus matrix average at iC3b 0.016 ug/ml [22]: -0.02 OD | A450 minus matrix average at iC3b 0.031 ug/ml [22]: -0.005 OD | A450 minus matrix average at iC3b 0.063 ug/ml [22]: 0.008 OD | A450 minus matrix average at iC3b 0.125 ug/ml [22]: 0.027 OD | A450 minus matrix average at iC3b 0.25 ug/ml [22]: 0.051 OD | A450 minus matrix average at iC3b 0.5 ug/ml [22]: 0.045 OD | A450 minus matrix average at iC3b 1 ug/ml [22]: 0.087 OD | absorbance A450, raw [23]: 0.361 A450 | net absorbance A450 (matrix only value 0.328 subtracted) [24]: 0.049 A450
Substance: mouse anti-iC3b antibody A209 (Quidel)
